pIC50: −log10 of the molar value.
Target: GST–BIR3 fusion protein (XIAP BIR3 domain)
Test: FMAT bead-based fluorescence competition assay

Substance: Smac N-terminal tripeptide AVP (compound 5)
- pIC50: < 5.00

Reference: paper PMC2710984
